Results published in publication PMC8927147, “Global profiling of regulatory elements in the histone benzoylation pathway” (Nature Communications, 2022).
Values belong to the binder of their own block, whether it stands above or below them. Ends that are not written are not given here. * marks the point of attachment. Bz = O=C(c1ccccc1)*

How the values were obtained:
Test in all cases: crystal structure; protein (15 mg/ml) mixed with peptide at 1:5 molar ratio; sitting-drop vapor diffusion at 25 °C
Settings in all cases: both partners purified
Sas5_(YEATS) = molecular target: T1, Sas5_(YEATS) (S. cerevisiae, UniProt Q99314 2-139)
T1 construct: also called YEATS domain of Sas5; source: E. coli Rosetta, purified (Ni-NTA, on-bead ULP1 digestion, SEC); not shown: 6*His-Sumo, N-terminal, cleaved
T1 sequence (looked up): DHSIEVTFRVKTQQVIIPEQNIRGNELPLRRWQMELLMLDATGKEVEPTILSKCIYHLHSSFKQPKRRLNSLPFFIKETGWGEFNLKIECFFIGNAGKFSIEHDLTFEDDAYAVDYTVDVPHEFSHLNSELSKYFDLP

Taf14_(YEATS) = molecular target: T2, Taf14_(YEATS) (S. cerevisiae, UniProt P35189 2-137)
T2 construct: Taf14, S. cerevisiae, YEATS domain, residues 2-137; also called Taf14_(2-137); YEATS domain of Taf14; source: E. coli Rosetta, purified (Ni-NTA, on-bead ULP1 digestion, SEC); not shown: 6*His-Sumo, N-terminal, cleaved
T2 sequence (looked up): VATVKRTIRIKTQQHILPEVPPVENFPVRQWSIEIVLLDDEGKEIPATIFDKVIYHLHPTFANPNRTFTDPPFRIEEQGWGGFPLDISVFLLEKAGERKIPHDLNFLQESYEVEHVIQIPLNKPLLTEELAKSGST

Hst2_(8-294) = molecular target: T3, Hst2_(8-294) (S. cerevisiae, UniProt P53686 8-294)
T3 construct: Construct of the crystal structures; source: E. coli Rosetta, purified (Ni-NTA, on-bead ULP1 digestion, SEC); not shown: 6*His-Sumo, N-terminal, cleaved
T3 sequence (P53686 8-294): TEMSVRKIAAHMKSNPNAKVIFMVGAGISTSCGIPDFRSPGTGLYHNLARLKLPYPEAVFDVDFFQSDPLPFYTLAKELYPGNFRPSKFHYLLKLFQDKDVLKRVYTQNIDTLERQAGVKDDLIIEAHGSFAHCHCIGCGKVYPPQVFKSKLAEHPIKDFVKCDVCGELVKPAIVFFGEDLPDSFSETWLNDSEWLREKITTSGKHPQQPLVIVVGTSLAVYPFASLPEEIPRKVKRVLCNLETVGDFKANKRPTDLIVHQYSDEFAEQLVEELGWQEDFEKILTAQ

Sth1BD = molecular target: T4, Sth1BD (S. cerevisiae, UniProt P32597 1248-1359)
T4 construct: also called Bromodomain from Sth1; source: E. coli Rosetta, purified (Ni-NTA, on-bead ULP1 digestion, SEC); not shown: 6*His-Sumo, N-terminal, cleaved
T4 sequence (looked up): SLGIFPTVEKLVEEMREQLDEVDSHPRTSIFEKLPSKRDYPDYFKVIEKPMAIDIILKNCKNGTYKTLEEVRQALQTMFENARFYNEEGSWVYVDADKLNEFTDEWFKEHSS

B1: H3_(18-37)K27bz (peptide)
peptide: KQLASKAARK(Bz)SAPSTGGVKY
notes: histone H3, residues K18 to K36; extra tyrosine residue (Y37) at the C-terminus designed for concentration determination by UV spectrometry; source: synthetic peptide
binding result (Sas5_(YEATS)): binds

B2: H3_(5-13)K9bz (peptide)
peptide: Ac-QTARK(Bz)STGG
notes: histone H3, residues 5-13; Peptide crystallised with Taf14_(2-137); also called H3K9bz (Ac-QTARKbzSTGG); source: synthetic peptide
binding result (Taf14_(YEATS)): binds

Results, then the binder that gave them:

binding result (Hst2_(8-294)): binds
B3: H3_(5-14)K9bz (peptide)
peptide: QTARK(Bz)STGGK
notes: histone H3, residues 5-14; also called benzoylated H3 peptide; source: synthetic peptide

binding result (Sth1BD): binds
B4: H3K14bz(TARKSTGGKbzAPRKQLASY) (peptide)
peptide: TARKSTGGK(Bz)APRKQLASY
notes: histone H3, residues 6-22; C-terminal tyrosine (Y23) that is not in H3 at this position; also called H3K14bz peptide of the Sth1BD crystal; source: synthetic peptide
